pKd: −log10 of the molar value.
Legend:
[1] = biological target: NS5A domain I (35-215) P145A; experiment: GST pulldown, Western blot quantification (Li-Cor Odyssey Sa); conditions: parent: est. 7.4; read off a plot
[2] = biological target: GST control protein; experiment: as above; conditions: parent: est. 0.78; read off a plot
[3] = biological target: NS5A domain I (35-215) P35A; experiment: as above; conditions: parent: est. 7.4; read off a plot
[4] = test system: NS5A domain I WT (Hepatitis C virus JFH-1 (genotype 2a)); experiment: filter binding; conditions: Binding buffer and temperature not given (as in ref 32); slot blot nitrocellulose/nylon, hyperbolic fit; protein dialyzed in 20 mM Tris-HCl pH 8.2, 150 mM …
[5] = biological target: NS5A domain I (35-215) V67A; experiment: GST pulldown, Western blot quantification (Li-Cor Odyssey Sa); conditions: parent: est. 7.4; read off a plot

Work on NS5A domain I (35-215), wild type P145A yielded a response [1] of 1.3 and a response [2] of 0.34.
In the case of NS5A domain I (35-215), wild type P35A, the response [2] was 0.34 and the response [3] was 2.5.
Substance HCV 3'UTR RNA has a pKd [4] of 6.61.
NS5A domain I (35-215), wild type V67A showed a response [5] of 0.39 and a response [2] of 0.15.
